From article PMC4478348

Target: LARP4B (UniProt Q92615 1-738)
Experiment: EMSA

LARP4B, sequence (Q92615 whole entry): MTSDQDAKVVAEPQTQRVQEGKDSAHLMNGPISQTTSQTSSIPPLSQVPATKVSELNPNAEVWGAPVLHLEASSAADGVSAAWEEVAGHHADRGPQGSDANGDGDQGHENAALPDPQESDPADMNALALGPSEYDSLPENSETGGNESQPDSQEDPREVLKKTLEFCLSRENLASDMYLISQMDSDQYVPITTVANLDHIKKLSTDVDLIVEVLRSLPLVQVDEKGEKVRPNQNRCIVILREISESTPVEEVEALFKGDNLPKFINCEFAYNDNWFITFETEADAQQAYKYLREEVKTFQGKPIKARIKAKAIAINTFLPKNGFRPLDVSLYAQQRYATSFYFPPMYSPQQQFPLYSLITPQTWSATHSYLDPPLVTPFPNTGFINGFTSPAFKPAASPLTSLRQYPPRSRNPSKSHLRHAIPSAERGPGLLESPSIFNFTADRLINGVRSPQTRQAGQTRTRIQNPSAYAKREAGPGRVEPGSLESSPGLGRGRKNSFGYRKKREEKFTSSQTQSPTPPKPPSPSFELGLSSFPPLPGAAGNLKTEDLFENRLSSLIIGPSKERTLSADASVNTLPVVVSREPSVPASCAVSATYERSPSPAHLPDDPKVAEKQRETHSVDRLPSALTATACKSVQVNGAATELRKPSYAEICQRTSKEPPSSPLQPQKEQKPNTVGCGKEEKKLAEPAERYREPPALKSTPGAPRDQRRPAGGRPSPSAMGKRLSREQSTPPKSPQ

Row | Binder | binding result | Kd [nM]
1 | GUAGAGACUUCCGUCACGCUUGGUAGAGGA (ssRNA) [CKB del] | no binding | 
2 | GUAGAGACUUCCGUCACGCUUGGUAGAGUUUAUUUUUUUGA (ssRNA) [CKB] |  | ~200
